Values quoted from earlier work in patent US5494894A, “Agent for the regulation of the appetite or a sleeping agent” (Erlanson-Albertsson; Charlotte, priority 1986, dated 1996).

Tested on: patients
Conditions: administered intravenously; cited from earlier work

B1: cholocystokinin (peptide, UniProt P06307 21-115, looked up)
Cholecystokinin: QPVPPADPAGSGLQRAEEAPRRQLRVSQRTDGESRAHLGALLARYIQQARKAPSGRMSIVKNLQNLDPSHRISDRDYMGWMDFGRRSAEEYEYPS
modifications: Cholecystokinin
notes: hormone which stimulates the secretion of pancreatic enzymes
  Feeling of satiety: earlier feeling of satiety
